# Measured values published in patent US20170298146A1 (MODIQUEST B V, published 2017).
# Non-standard residues stand in square brackets, D forms with d. No end group written: not given here. Cit = NC(=O)NCCC[C@H](N)C(=O)O
# T1: msFibβ XG (mouse, also: biotin label)
# T1 peptide: EPTDSLDA[Cit]GHRPVDRR
# T2: msFibα XG (mouse, X at position 8 is citrulline; biotin label)
# T2 peptide: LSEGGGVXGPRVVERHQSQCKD
# T3: msFibα XH (mouse, X at position 15 is citrulline; biotin label)
# T3 peptide: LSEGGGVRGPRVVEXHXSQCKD
# T4: msVim XS/XL (mouse, also: biotin label)
# T4 construct: also called mouse vimentin peptide
# T4 peptide: YVT[Cit]SSAV[Cit]L[Cit]SSVP
# T5: huFibα XG (human, X at position 8 is citrulline; biotin label)
# T5 peptide: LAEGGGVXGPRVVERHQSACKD
# T6: huFibα XH (human, X at position 15 is citrulline; biotin label)
# T6 peptide: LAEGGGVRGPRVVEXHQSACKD
# B1: RhmAb2.102 (antibody, human IgG1, lambda)
# heavy: not shown
# light: QSVLTQPPSMSAAPGQKVTISCSGSSSNIGNNYVSWYQQVPGTAPKLLIYDDNKRPSGIPGRFSGSKSATSATLGITGLQAGDEADYYCGSWDDNLSVVLFGGGTKLTVLGQPKAAPSVTLFPPSSEELQANKATLVCLISDFYPGAVTVAWKADSSPVKAGVETTTPSKQSNNKYAASSYLSLTPEQWKSHRSYSCQVTHEGSTVEKTVAPTECS
# notes: Human IgG1 lambda; also called Rhm2.102
# Experiments:
# msFibβ XG [1] = biological target: T1, msFibβ XG; experiment: peptide ELISA, 0.000128 ug/well
# Method: (§1) Biotin and citrulline-containing peptides derived from fibrinogen and vimentin were immobilized on NEUTRAVIDIN®-coated 96-well ELISA plates (0.3 μg/well). CFC-1 and CFC-0 were coated at the same concentration and served as positive and negative controls respectively for specific anti-citrulline reactivity and as coating controls. Non-coated wells were used to test for aspecific binding of the antibodies. […] Detection of bound anti-citrulline antibodies was performed by incubating the wells with rabbit-anti-human-HRP (1:2000) for one hour at RT followed by incubation with TMB substrate. The resulting OD (y-axis) is a measure for antibody binding.
# (§2) Biotin-labeled and citrulline-containing fibrinogen and vimentin peptides (Table 5) were also tested for reactivity with the therapeutic antibodies. Peptides were coated on 96-well NEUTRAVIDIN®-ELISA plates.
# msFibα XG [2] = biological target: T2, msFibα XG; experiment: peptide ELISA, 0.000128 ug/well
# Method: as §1, §2
# msFibα XH [3] = biological target: T3, msFibα XH; experiment: peptide ELISA, 0.000128 ug/well
# Method: as §1, §2
# msVim XS/XL [4] = biological target: T4, msVim XS/XL; experiment: peptide ELISA, 0.000128 ug/well
# Method: as §1, §2
# huFibα XG [5] = biological target: T5, huFibα XG; experiment: peptide ELISA, 0.000128 ug/well
# Method: as §1, §2
# CFC-1 [6] = biological target: T7, CFC-1; experiment: peptide ELISA, 0.000128 ug/well
# T7 construct: Positive control for anti-citrulline reactivity; also called cfc1 XG
# Method: as §1, §2
# huFibα XH [7] = biological target: T6, huFibα XH; experiment: peptide ELISA, 0.000128 ug/well
# Method: as §1, §2
# msFibβ XG [8] = biological target: T1, msFibβ XG; experiment: peptide ELISA, 0.4 ug/well
# Method: as §1, §2
# msFibα XG [9] = biological target: T2, msFibα XG; experiment: peptide ELISA, 0.4 ug/well
# Method: as §1, §2
# msFibα XH [10] = biological target: T3, msFibα XH; experiment: peptide ELISA, 0.4 ug/well
# Method: as §1, §2
# msVim XS/XL [11] = biological target: T4, msVim XS/XL; experiment: peptide ELISA, 0.4 ug/well
# Method: as §1, §2
# huFibα XG [12] = biological target: T5, huFibα XG; experiment: peptide ELISA, 0.4 ug/well
# Method: as §1, §2
# CFC-1 [13] = biological target: T7, CFC-1; experiment: peptide ELISA, 0.4 ug/well
# Method: as §1, §2
# huFibα XH [14] = biological target: T6, huFibα XH; experiment: peptide ELISA, 0.4 ug/well
# Method: as §1, §2
# [15] = biological target: T8, huPAD2 deiminated human recombinant histone H2A (human); experiment: ELISA, 0.08 ug/well
# T8 construct: also called H2A/p2
# Method: (§3) CFC-1 and CFC-0 were coated at the same concentration and served as positive and negative controls, respectively, for specific anti-citrulline reactivity and as coating controls. Non-coated wells were used to test for aspecific binding of the antibodies. […] Detection of bound anti-citrulline antibodies was performed by incubating the wells with rabbit-anti-human-HRP (1:2000) for one hour at RT followed by incubation with TMB substrate. The resulting OD (y-axis) is a measure for antibody binding. H1=recombinant histone 1; H1/p2=huPAD2 recombinant histone 1; H1/p4=huPAD4 recombinant histone 1 and so forth (x-axis).
# [16] = biological target: human recombinant histone H4 (human, UniProt P62805 2-103); experiment: ELISA, 0.08 ug/well
# Method: as §3
# [17] = biological target: T9, huPAD4 deiminated human recombinant histone H2B (human); experiment: ELISA, 0.08 ug/well
# T9 construct: also called H2B/p4
# Method: as §3
# [18] = biological target: T10, huPAD4 deiminated human recombinant histone H2A (human); experiment: ELISA, 0.08 ug/well
# T10 construct: also called H2A/p4; huPAD4 deiminated histone 2A
# Method: as §3
# [19] = biological target: T11, huPAD2 deiminated human recombinant histone H2B (human); experiment: ELISA, 0.08 ug/well
# T11 construct: also called H2B/p2
# Method: as §3
# CFC-1 [20] = biological target: T7, CFC-1; experiment: ELISA, 0.08 ug/well
# Method: as §3
# [21] = biological target: T12, human recombinant histone H2A (human); experiment: ELISA, 0.08 ug/well
# T12 construct: Non-deiminated
# Method: as §3
# [22] = biological target: T13, huPAD2 deiminated human recombinant histone H3 (human); experiment: ELISA, 0.08 ug/well
# T13 construct: also called H3/p2
# Method: as §3
# [23] = biological target: T14, human recombinant histone H2B (human); experiment: ELISA, 0.08 ug/well
# T14 construct: Non-deiminated
# Method: as §3
# [24] = biological target: T15, huPAD4 deiminated human recombinant histone H3 (human); experiment: ELISA, 0.08 ug/well
# T15 construct: also called H3/p4
# Method: as §3
binder,measurement,setting,value
B1,OD,msFibβ XG [1],0.118 OD
same,OD,msFibα XG [2],0.119 OD
same,OD,msFibα XH [3],0.089 OD
same,OD,msVim XS/XL [4],0.133 OD
same,OD,huFibα XG [5],0.115 OD
same,OD,CFC-1 [6],0.288 OD
same,OD,huFibα XH [7],0.12 OD
same,OD,msFibβ XG [8],1.67 OD
same,OD,msFibα XG [9],0.773 OD
same,OD,msFibα XH [10],0.076 OD
same,OD,msVim XS/XL [11],1.45 OD
same,OD,huFibα XG [12],0.521 OD
same,OD,CFC-1 [13],3.79 OD
same,OD,huFibα XH [14],0.09 OD
same,OD,[15],1.96 OD
same,OD,[16],0.067 OD
same,OD,[17],0.052 OD
same,OD,[18],1.75 OD
same,OD,[19],0.053 OD
same,OD,CFC-1 [20],2.15 OD
same,OD,[21],0.06 OD
same,OD,[22],0.493 OD
same,OD,[23],0.054 OD
same,OD,[24],0.093 OD
